Four substances from patent US10851152B2, “Polymerized peptide and gel having collagen-like structure” (WASEDA UNIVERSITY, priority 2015, dated 2020) can be followed below.

Common to all, as to assay type: physicochemical
Series [1] is described as follows: Hydrogel formation judged by holding of a stainless ball. Also noted: key to gel formation, Time (hour) 9 / gel formation, Time (hour) 12 / gel formation, Time (hour) 15 / gel formation, Time (hour) 24 / gel formation, Time (hour) 32 / gel formation, Time (hour) 74 / gel formation, Peptide concentration 0.1% (w/v) / gel formation, Peptide concentration 0.2% (w/v) / gel formation, Peptide concentration 0.3% (w/v) / gel formation, Peptide concentration 0.5% (w/v) / gel formation, Peptide concentration 0.7% (w/v) / gel formation, Peptide concentration 1.0% (w/v): ◯: Gelated; X: Failed to gelate. The note with it: for gel-forming capability / gel formation, Time (hour) 9 / gel formation, Time (hour) 12 / gel formation, Time (hour) 15 / gel formation, Time (hour) 24 / gel formation, Time (hour) 32 / gel formation, Time (hour) 74: 1% (w/v) peptide; for gel-forming capability: 10% DMSO, up to three days; for gel formation, Time (hour) 9: 9 hour; for gel formation, Time (hour) 12: 12 hour; for gel formation, Time (hour) 15: 15 hour; for gel formation, Time (hour) 24: 24 hour; for gel formation, Time (hour) 32: 32 hour; for gel formation, Time (hour) 74: 74 hour. As to the method:
Degassed water was used to prepare a peptide solution having a concentration of 1.11% (w/v) or 1.66% (w/v), and the solution was then put into a PCR tube. After heating this solution at 80° C. for 5 min using a polymerase chain reaction (PCR) machine (TaKaRa PCR Thermal Cycler, TAKARA BIO INC.), the solution was then left to stand at 4° C. overnight. By adding DMSO and water to this solution, there was prepared a peptide solution having a concentration of 10% DMSO, 0.1 to 1.5% (w/v). The PCR tube was then filled with a mineral oil in a way such that the mineral oil covered the liquid surface, followed by allowing the solution to stand at room temperature for a given period of time to achieve a gel. Then, gel formation was determined by looking at whether a stainless ball could be held by the gel.

Series [2] can be described thus: Remaining thiol group (Ellman's reagent) in oxidative polymerization reaction. As to conditions: 10% DMSO, peptide 1% (w/v). As to the method: Degassed water was used to prepare a peptide solution having a concentration of 1.11% (w/v), and the solution was then put into a PCR tube. After heating this solution at 80° C. for 5 min, it was then left to sand still at 4° C. overnight. By adding DMSO to this solution, there was prepared a peptide solution having a final concentration of 10% DMSO, peptide 1% (w/v). The PCR tube was then filled with a mineral oil in a way such that the mineral oil covered the surface of the solution. In every measurement, the mineral oil was eliminated from the peptide solution to prepare a peptide solution for oxidation monitoring. Ellman's reagent was prepared in a way such that 9 mg/ml of DTNB was present in 50 mM of a phosphate buffer solution (pH 8.4). 33 mM phosphate buffer solution (pH 8.4) and Ellman's reagent 1.5 mg/ml were left to stand for […], then a light absorbance was then measured after a solution with a final concentration of peptide 0.167 mg/ml. Recorded were changes in absorbance with time, with a moment when DMSO was added being a starting point (0 hour). Since the Ellman's reagent generates 5-mercapto-2-nitrobenzoate (λ max=412 nm, ε=1.55×10^4) depending on the amount of thiol groups (referred to as “SH groups” hereunder) in the peptide, measured was a absorbance at 412 nm. After the measurement, optical path length was compensated by measuring absorbance at 997 nm and 900 nm.
For orientation: In Ellman's method for cholinesterases, released thiocholine reacts with DTNB.

Series [3] can be described thus: Hydrogel stability to reduction treatment (DTT) or water with pipetting. The note with it: water added instead of reducing solution; pipetting about 90 times/min. As to the method: There, verification was made on whether gel caused a collapse by breaking the disulfide cross-linking by a reduction treatment. A reducing solution of 100 μl (100 mM DTT, 50 mM phosphate buffer solution (pH 8.4)) or water was added to the hydrogel (30 μl) prepared. […] Then, pipetting procedure was respectively performed at a frequency of about 90 times/min and a volume of 100 μl/each time, using a yellow tip (up to 200 μl).

Setting [4] is: oxidizing conditions: room temperature, three days.

For “(POG)6PRG(POG)5CC (PPGPPGPPGPPGPPGPPGPRGPPGPPGPPGPPGPPGCC; not fully specified; hydroxyproline; MOD_RES (2)..(2) 4-Hydroxyproline; MOD_RES (5)..(5) 4-Hydroxyproline; MOD_RES (8)..(8) 4-Hydroxyproline; MOD_RES (11)..(11) 4-Hydroxyproline; MOD_RES (14)..(14) 4-Hydroxyproline; MOD_RES (17)..(17) 4-Hydroxyproline; MOD_RES (23)..(23) 4-Hydroxyproline; MOD_RES (26)..(26) 4-Hydroxyproline; MOD_RES (29)..(29) 4-Hydroxyproline; MOD_RES (32)..(32) 4-Hydroxyproline; MOD_RES (35)..(35) 4-Hydroxyproline) [CC1]”, the gel-forming capability result in series [1] (room temperature) is listed as “did not turn into a gel”. Also, in series [2] (SH amount at 0 hour being 100%, 74 hours), the “ratio of SH amount” value was “approximately 0%”.

“CCC(POG)6PRG(POG)5CCC (CCCPPGPPGPPGPPGPPGPPGPRGPPGPPGPPGPPGPPGCCC; not fully specified; hydroxyproline; MOD_RES (5)..(5) 4-Hydroxyproline; MOD_RES (8)..(8) 4-Hydroxyproline; MOD_RES (11)..(11) 4-Hydroxyproline; MOD_RES (14)..(14) 4-Hydroxyproline; MOD_RES (17)..(17) 4-Hydroxyproline; MOD_RES (20)..(20) 4-Hydroxyproline; MOD_RES (26)..(26) 4-Hydroxyproline; MOD_RES (29)..(29) 4-Hydroxyproline; MOD_RES (32)..(32) 4-Hydroxyproline; MOD_RES (35)..(35) 4-Hydroxyproline; MOD_RES (38)..(38) 4-Hydroxyprolin) [CCC2]”: in series [3], the “gel collapse on adding water” value was “gel collapse was not observed”. Besides, the gel-forming capability entry in series [1] (room temperature) was “capable of turning into gels”. Further, in series [1], the “gel formation, Time (hour) 9” value was “X”; the “gel formation, Time (hour) 12” value was “X”; the “gel formation, Time (hour) 15” value is on record as “X”; the “gel formation, Time (hour) 24” value is listed as “◯”. In series [1], the “gel formation, Time (hour) 32” value is listed as “◯” and the “gel formation, Time (hour) 74” value is listed as “◯”. In addition, in series [1] (setting [4]), the “gel formation, Peptide concentration 0.3% (w/v)” value is listed as “X”; the “gel formation, Peptide concentration 0.5% (w/v)” value is recorded as “◯”; the “gel formation, Peptide concentration 0.7% (w/v)” value is reported as “◯”; the “gel formation, Peptide concentration 1.0% (w/v)” value is “◯”. Besides, the “time in which peptide turned into a gel” value in series [2] is 24 h.

With CCCC(POG)6PRG(POG)5CCGC [CCCC2], the “gel collapse on adding water” value in series [3] is listed as “gel collapse was not observed”. Moreover, the gel-forming capability result in series [1] (room temperature) is listed as “capable of turning into gels”. Moreover, in series [1], the “gel formation, Time (hour) 9” value is “X”; the “gel formation, Time (hour) 12” value is given as “◯”; the “gel formation, Time (hour) 15” value is “◯”; the “gel formation, Time (hour) 24” value is reported as “◯”. Moreover, in series [1], the “gel formation, Time (hour) 32” value is “◯” and the “gel formation, Time (hour) 74” value is “◯”. For the same substance, in series [1] (oxidizing conditions: room temperature, three days, 0.1% (w/v)), the “gel formation, Peptide concentration 0.1% (w/v)” value is recorded as “X”. Further, the “gel formation, Peptide concentration 0.2% (w/v)” value in series [1] (oxidizing conditions: room temperature, three days, 0.2% (w/v)) is “X”. In series [1] (setting [4]), the “gel formation, Peptide concentration 0.3% (w/v)” value is recorded as “◯”; the “gel formation, Peptide concentration 0.5% (w/v)” value is on record as “◯”; the “gel formation, Peptide concentration 0.7% (w/v)” value is on record as “◯”; the “gel formation, Peptide concentration 1.0% (w/v)” value is “◯”. The “concentration at which peptide still turned into a gel” value in series [1] (room temperature, three days) is listed as 0.3 % (w/v). In addition, the “time in which peptide turned into a gel” value in series [2] was determined as 12 h.

Regarding “YCC(POG)6PRG(POG)5CCY (YCCPPGPPGPPGPPGPPGPPGPRGPPGPPGPPGPPGPPGCCY; not fully specified; hydroxyproline; MOD_RES (5)..(5) 4-Hydroxyproline; MOD_RES (8)..(8) 4-Hydroxyproline; MOD_RES (11)..(11) 4-Hydroxyproline; MOD_RES (14)..(14) 4-Hydroxyproline; MOD_RES (17)..(17) 4-Hydroxyproline; MOD_RES (20)..(20) 4-Hydroxyproline; MOD_RES (26)..(26) 4-Hydroxyproline; MOD_RES (29)..(29) 4-Hydroxyproline; MOD_RES (32)..(32) 4-Hydroxyproline; MOD_RES (35)..(35) 4-Hydroxyproline; MOD_RES (38)..(38) 4-Hydroxyprolin) [YCC2]”, the “gel collapse on adding water” value in series [3] is on record as “gel collapse was observed”. In series [1] (room temperature), the gel-forming capability entry is reported as “capable of turning into gels”. Besides, in series [1], the “gel formation, Time (hour) 9” value is “X”; the “gel formation, Time (hour) 12” value is given as “X”; the “gel formation, Time (hour) 15” value was “X”; the “gel formation, Time (hour) 24” value is on record as “X”. In addition, in series [1], the “gel formation, Time (hour) 32” value is on record as “X” and the “gel formation, Time (hour) 74” value was “◯”. Also, in series [1] (setting [4]), the “gel formation, Peptide concentration 0.3% (w/v)” value is on record as “X”; the “gel formation, Peptide concentration 0.5% (w/v)” value was “X”; the “gel formation, Peptide concentration 0.7% (w/v)” value is “X”; the “gel formation, Peptide concentration 1.0% (w/v)” value is “◯”. Also, in series [2], the “time in which peptide turned into a gel” value turned out to be 74 h.
